The target in this experiment is T1, rhBMP-2 (recombinant human bone morphogenetic protein-2) (human, UniProt P12643 283-396).
T1 construct: Control protein on the Western blot; Analysed on reducing SDS-PAGE
The experiment in a line: co-immunoprecipitation.

Experimental findings from patent US20060252724A1 (Pfizer, published 2006) are described below.

T1 sequence (P12643 283-396 limits assumed): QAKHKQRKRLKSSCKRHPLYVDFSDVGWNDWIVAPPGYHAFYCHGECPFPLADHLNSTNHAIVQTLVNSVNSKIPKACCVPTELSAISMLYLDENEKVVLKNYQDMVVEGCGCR

B1: retrovirally produced BMP-3 (from pBABE-BMP3, full-length human BMP-3 cDNA, secreted by infected W-20-17 cells) (ligand)
chain: QWIEPRNCARRYLKVDFADIGWSEWIISPKSFDAYYCSGACQFPMPKSLKPSNHATIQSIVRAVGVVPGIPEPCCVPEKMSSLSILFFDENKNVVLKVYPNMTVESCACR
notes: Expressed from the full-length human cDNA; The secreted, processed form has a most abundant monomer of about 28 kD, with glycosylated or alternatively processed forms; also called vBMP3; BMP-3 CM
For B1, the binding result is recorded as “no binding”.
